Data taken from paper PMC3264566, “Structure-Function Studies of DNA Binding Domain of Response Regulator KdpE Reveals Equal Affinity Interactions at DNA Half-Sites”.
Residue numbers refer to the chain shown, from its start.

Legend:
Experiment in all cases: EMSA; up to 1:8 DNA:protein; AUC: 50 mM HEPES pH 7.4, 150 mM KCl, 1 mM EDTA, 20 C, DNA 0.5 uM in SV; EMSA: 10 mM Tris pH 8.0, 50 mM NaCl, 5% glycerol, 0.1% Triton X-100, 10 mM DTT, 1 mM EDT
Details in all cases: protein: recombinant; chain copies: 2; blunt
[1] = target: T1, KdpE DBD R193A (Escherichia coli str. K-12 substr. …, UniProt P21866 124-225, R193A)
T1 sequence: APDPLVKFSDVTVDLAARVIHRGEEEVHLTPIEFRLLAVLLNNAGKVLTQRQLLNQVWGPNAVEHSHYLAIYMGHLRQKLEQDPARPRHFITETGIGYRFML

[2] = target: T2, KdpE DBD R200A (Escherichia coli str. K-12 substr. …, UniProt P21866 124-225, R200A)
T2 sequence: T1 sequence with A70R, R77A

[3] = target: T3, KdpE DBD T215A (Escherichia coli str. K-12 substr. …, UniProt P21866 124-225, T215A)
T3 sequence: T1 sequence with A70R, T92A

Measured: binding result

B1: kdpFABCBS 30 bp (dsDNA)
DNA 1: CATTTTTATACTTTTTTTACACCCCGCCCG
DNA 2: CGGGCGGGGTGTAAAAAAAGTATAAAAATG
no binding: [1] | [2] | [3]
